In this data set the target is GmESR1 (Glycine max cv. Dongnong 50, UniProt K7K6B8 5-391). The data set is described as follows: EMSA; EMSA as in Kass et al. (2000); buffer, salt, pH and temperature not stated. The settings on record: protein: recombinant; tags: His (pET-29b); label: digoxigenin-ddUTP; blunt.

Here are results for one molecule from PMC5389854, “Functional analysis of the GmESR1 gene associated with soybean regeneration”.

Chain of GmESR1 (K7K6B8 entry or part of it): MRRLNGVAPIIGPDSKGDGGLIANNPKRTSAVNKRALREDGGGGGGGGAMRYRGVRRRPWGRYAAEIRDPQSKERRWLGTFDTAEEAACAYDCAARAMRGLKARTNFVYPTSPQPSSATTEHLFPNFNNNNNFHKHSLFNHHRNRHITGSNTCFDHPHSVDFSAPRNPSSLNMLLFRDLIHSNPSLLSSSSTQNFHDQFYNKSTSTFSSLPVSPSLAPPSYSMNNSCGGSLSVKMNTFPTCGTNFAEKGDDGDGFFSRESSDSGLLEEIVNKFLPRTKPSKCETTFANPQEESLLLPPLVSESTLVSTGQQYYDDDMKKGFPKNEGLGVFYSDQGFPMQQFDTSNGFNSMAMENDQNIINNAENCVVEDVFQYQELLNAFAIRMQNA

B1: mGCC-box probe (dsDNA)
DNA 1: ATCCATAAGATCCTCCACTAAAATAAGACCGATCAA
DNA 2: TTGATCGGTCTTATTTTAGTGGAGGATCTTATGGAT
As to B1, the binding result is “no binding”.
